The target of experiment [1] is T1, DC-SIGN extracellular domain (ECD), wildtype, Q9NNX6.
T1 chain: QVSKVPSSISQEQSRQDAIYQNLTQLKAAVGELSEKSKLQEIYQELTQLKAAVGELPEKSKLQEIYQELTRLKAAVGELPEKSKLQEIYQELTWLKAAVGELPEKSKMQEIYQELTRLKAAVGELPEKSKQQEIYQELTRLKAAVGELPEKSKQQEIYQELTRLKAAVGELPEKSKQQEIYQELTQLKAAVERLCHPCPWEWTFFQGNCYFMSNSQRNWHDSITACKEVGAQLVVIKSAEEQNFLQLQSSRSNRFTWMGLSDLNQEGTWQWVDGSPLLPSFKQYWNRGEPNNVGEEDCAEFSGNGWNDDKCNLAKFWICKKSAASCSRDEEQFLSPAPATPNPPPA
Kind of experiment: dynamic light scattering; purified ECDs; tetrameric state judged from mannan affinity chromatography, DLS and DSF together. The settings on record: remark: other sources report otherwise.

In experiment [2] the target is T1, DC-SIGN extracellular domain (ECD), …. The experiment in a line: cryo-EM structure; DC-SIGN ECD, single particles; low resolution map, three of the four CRDs visibly resolved. To be noted: remark: other sources report otherwise.

The text below walks through data of paper PMC12933331, “A Cryptic Pocket Allosterically Modulates Oligosaccharide Binding to DC-SIGN” (JACS Au, 2026).

B1: DC-SIGN extracellular domain (ECD), wildtype, Q9NNX6 59-404 (receptor)
chain: T1 chain
Regarding B1, the stoichiometry N in experiment [1] and in experiment [2] was 4 each time.

Usually stoichiometry N stands for the number of molecules, sites or subunits per partner or assembly.
